# T1: GFP-STX12 wild type (Syntaxin-12) (human, UniProt Q86Y82 1-276)
# T1 construct: Syntaxin-12 (STX12), human; After IGF1 stimulation about 20% of the stably expressed protein was phosphorylated (Ser139) by phos-tag analysis; also called GFP-STX12 WT; wild-type STX12
# T1 sequence (looked up): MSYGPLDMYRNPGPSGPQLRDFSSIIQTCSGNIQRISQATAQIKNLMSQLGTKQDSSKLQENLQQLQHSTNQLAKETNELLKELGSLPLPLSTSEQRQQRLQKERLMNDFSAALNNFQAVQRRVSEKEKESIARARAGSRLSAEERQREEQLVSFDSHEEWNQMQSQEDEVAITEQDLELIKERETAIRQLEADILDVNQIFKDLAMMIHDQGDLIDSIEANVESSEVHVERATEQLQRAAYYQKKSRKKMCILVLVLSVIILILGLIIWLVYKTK
# B1: Syntaxin 6 (STX6) (natural protein, human (endogenous in HEK293), UniProt O43752 1-255, looked up)
# chain: MSMEDPFFVVKGEVQKAVNTAQGLFQRWTELLQDPSTATREEIDWTTNELRNNLRSIEWDLEDLDETISIVEANPRKFNLDATELSIRKAFITSTRQVVRDMKDQMSTSSVQALAERKNRQALLGDSGSQNWSTGTTDKYGRLDRELQRANSHFIEEQQAQQQLIVEQQDEQLELVSGSIGVLKNMSQRIGGELEEQAVMLEDFSHELESTQSRLDNVMKKLAKVSHMTSDRRQWCAIAILFAVLLVVLILFLVL
# notes: Syntaxin-6 (STX6), endogenous in HEK293 cells, detected by immunoblot with anti-STX6; source: endogenous, HEK293 lysate
# B2: VTI1A (natural protein, human (endogenous in HEK293), UniProt Q96AJ9 1-217, looked up)
# chain: MSSDFEGYEQDFAVLTAEITSKIARVPRLPPDEKKQMVANVEKQLEEAKELLEQMDLEVREIPPQSRGMYSNRMRSYKQEMGKLETDFKRSRIAYSDEVRNELLGDDGNSSENQRAHLLDNTERLERSSRRLEAGYQIAVETEQIGQEMLENLSHDREKIQRARERLRETDANLGKSSRILTGMLRRIIQNRILLVILGIIVVITILMAITFSVRRH
# notes: Vti1a (VTI1A), endogenous in HEK293 cells, detected by immunoblot with anti-VTI1A; source: endogenous, HEK293 lysate
# B3: VAMP4 (natural protein, human (endogenous in HEK293), UniProt O75379 1-141, looked up)
# chain: MPPKFKRHLNDDDVTGSVKSERRNLLEDDSDEEEDFFLRGPSGPRFGPRNDKIKHVQNQVDEVIDVMQENITKVIERGERLDELQDKSESLSDNATAFSNRSKQLRRQMWWRGCKIKAIMALVAAILLLVIIILIVMKYRT
# notes: VAMP4, endogenous in HEK293 cells, detected by immunoblot with anti-VAMP4; also called v-SNARE protein VAMP4; source: endogenous, HEK293 lysate
# Biological target: T1, GFP-STX12 wild type (Syntaxin-12)
# Test: co-IP; GFP-STX12 WT or S139A immunoprecipitated from 2 mg lysate with GFP-Trap beads, 4°C, 4 h; two washes with lysis buffer with 0.45 M NaCl, one with 0.15 M NaCl; immunoblot of endogenous partners; cells serum-starved overnight, ± 14H (1 µM, 1 h), ± IGF1 (50 ng/ml, 15 min)
# Details: partners not purified
row,Binder,"fold increase of the amount co-immunoprecipitated, IGF1-stimulated against unstimulated cells"
1,B1,~2 fold
2,B2,~2 fold
3,B3,~2 fold

# Source: paper PMC6824681, “Phosphoproteomics reveals that the hVPS34 regulated SGK3 kinase specifically phosphorylates endosomal proteins including Syntaxin-7, Syntaxin-12, RFIP4 and WDR44” (Biochemical Journal, 2019)
